Measured values taken from paper PMC5727476.

Assays:
[1] = target: recombinant Ixodes ricinus asparaginyl endopeptidase (IrAe) (Ixodes ricinus)
[2] = target: Eudiplozoon nipponicum cathepsin B (EnCB) (Eudiplozoon nipponicum)
[3] = target: Eudiplozoon nipponicum cathepsin L3 (EnCL3) (Eudiplozoon nipponicum)
[4] = target: recombinant mouse cathepsin L (MmCL) (mouse) (UniProt P06797)
UniProt P06797, sequence (P06797 18-334): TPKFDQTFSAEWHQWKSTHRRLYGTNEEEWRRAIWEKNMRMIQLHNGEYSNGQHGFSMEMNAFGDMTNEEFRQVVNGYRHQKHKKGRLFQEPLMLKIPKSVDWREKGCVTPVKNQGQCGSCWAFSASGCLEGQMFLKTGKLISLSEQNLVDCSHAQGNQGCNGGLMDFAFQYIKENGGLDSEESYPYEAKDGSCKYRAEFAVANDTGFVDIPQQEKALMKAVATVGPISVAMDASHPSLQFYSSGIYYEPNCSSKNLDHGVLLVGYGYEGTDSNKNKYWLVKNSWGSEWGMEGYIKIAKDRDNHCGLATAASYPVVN

Substance: recombinant Eudiplozoon nipponicum stefin (rEnStef) (natural protein)
- IC50 of inhibition of peptidase activity (continuous fluorometric assay, Z-Ala-Ala-Asn-AMC, 25 mM MES pH 6, 5 mM DTT; peptidase 10 nM) [1]: 371 nM
- IC50 of inhibition of peptidase activity (continuous fluorometric assay, Z-Phe-Arg-AMC, 25 mM MES pH 6, 5 mM DTT; peptidase 10 nM) [2]: 13.7 nM
- IC50 of inhibition of peptidase activity (continuous fluorometric assay, Z-Phe-Arg-AMC, 25 mM MES pH 6, 5 mM DTT; peptidase 10 nM) [3]: 46.7 nM
- IC50 of inhibition of peptidase activity (continuous fluorometric assay, Z-Phe-Arg-AMC, 25 mM MES pH 6, 5 mM DTT; peptidase 5 nM) [4]: 133 nM
